Test in all cases: cell-based or functional assay
Design in all cases: unit not given beside the values

For assay [1], the target named is HIV-1 Env of virus 3301.V1.C24.SG3 (Clade AC) (HIV-1 strain 3301.V1.C24).
The target in assay [2] is HIV-1 Env of virus ZM106.9.SG3 (Clade C) (HIV-1 strain ZM106.9).
In assay [3] the target is HIV-1 Env of virus CNE58.SG3 (Clade C) (HIV-1 strain CNE58).
The target in assay [4] is HIV-1 Env of virus DJ263.8.SG3 (Clade AG) (HIV-1 strain DJ263.8).
The target in assay [5] is HIV-1 Env of virus 001428-2.42.SG3 (Clade C) (HIV-1 strain 001428-2.42).
Assay [6] concerns the target HIV-1 Env of virus BG505.W6M.C2.T332N.SG3 (Clade A) (HIV-1 strain BG505).
Assay [7] concerns the target HIV-1 Env of virus MW965.26.SG3 (Clade C) (HIV-1 strain MW965.26).
Assay [8] addresses HIV-1 Env of virus 25925-2.22.SG3 (Clade C) (HIV-1 strain 25925-2.22).
Assay [9] addresses HIV-1 Env of virus HxB2.DG.SG3 (Clade B) (HIV-1 strain HxB2).
For assay [10], the target named is HIV-1 Env of virus 242-14.SG3 (Clade AG) (HIV-1 strain 242-14).

Consider VRC01 (antibody), for which the ID50 (virus neutralization, ctrl mAb; run with wk 6 sera) in assay [1] was 0.305; in assay [2] it was 0.472; in [3], 0.398; in [4], 0.095; in assay [5], less than 0.05; in [6] it was 0.097. The ID50 (virus neutralization, ctrl mAb; run with wk 6 sera) in assay [7] was 0.025; in assay [8] it was 2.91; in [9] it was 0.07; in [10], more than 50. Moreover, the ID50 (virus neutralization, ctrl mAb; run with wk 18 sera) in [1] was 0.358; in assay [2], 0.486; in assay [3], 0.435; in assay [4] it was 0.127; in [5], less than 0.05; in assay [6], 0.068. In addition, the ID50 (virus neutralization, ctrl mAb; run with wk 18 sera) in [7] is 0.041; in [8], 1.07; in assay [9], less than 0.05; in assay [10] it was more than 50.

The values are drawn from patent US20240287144A1.
